Data set [1] concerns the molecule itself. Briefly: scanning-probe microscopy in dynamic force mode (DFM); RecA variant (0.2 μM RecA-wt or npRecA dimer, 0.8 μM npRecA monomer) incubated with linear pUC119 dsDNA (2.0 μM), ATPγS (0.5 mM), MgCl2 (10 mM), Tris-HCl pH 7.5, DTT, 30 min at 37°C; fixed with glutaraldehyde (0.2%) on mica; filament formation on DNA; also done with circular phage ssDNA.
Data set [2] deals with npRecA monomer (UniProt P0A7G6 31-337, C117M;S118V;Q119R). Kind of data set: EMSA; no nucleotide cofactor; EMSA: standard reaction buffer (composition not in material), 4.5 uM (nt) ssDNA or 9.0 uM dsDNA, agarose gel, no fixation; 6-MI: 25 mM Tris-HCl pH 7.5, 10 mM MgCl2, 1 mM DTT, 25 C, 3.0 uM DNA; DFM: 0.5 mM ATPgS, 10 mM MgCl2, glutaraldehyde fixation. As to conditions: protein: recombinant; label: FAM.
Chain of npRecA monomer (P0A7G6 31-337 C117M/S118V/Q119R): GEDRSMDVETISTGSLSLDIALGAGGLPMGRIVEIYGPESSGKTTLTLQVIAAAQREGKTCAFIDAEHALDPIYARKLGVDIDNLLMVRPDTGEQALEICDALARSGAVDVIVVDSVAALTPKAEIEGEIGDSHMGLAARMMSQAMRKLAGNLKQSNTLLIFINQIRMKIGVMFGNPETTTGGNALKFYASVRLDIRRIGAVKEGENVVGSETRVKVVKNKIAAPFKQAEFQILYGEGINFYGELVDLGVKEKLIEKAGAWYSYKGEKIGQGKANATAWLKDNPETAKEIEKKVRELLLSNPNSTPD

In data set [3] the target is RecA-3mΔC (UniProt P0A7G6 2-337, C117M;S118V;Q119R). Briefly: EMSA; 1.3 mM ATP; 'defective'; EMSA: standard reaction buffer (composition not in material), 4.5 uM (nt) ssDNA or 9.0 uM dsDNA, agarose gel, no fixation; 6-MI: 25 mM Tris-HCl pH 7.5, 10 mM MgCl2, 1 mM DTT, 25 C, 3.0 uM DNA; DFM: 0.5 mM ATPgS, 10 mM MgCl2, glutaraldehyde fixation. As to conditions: protein: recombinant; label: FAM. On the technique in general: A gel shift assay detects complexes by their altered migration in electrophoresis.
Chain of RecA-3mΔC (P0A7G6 2-337 C117M/S118V/Q119R): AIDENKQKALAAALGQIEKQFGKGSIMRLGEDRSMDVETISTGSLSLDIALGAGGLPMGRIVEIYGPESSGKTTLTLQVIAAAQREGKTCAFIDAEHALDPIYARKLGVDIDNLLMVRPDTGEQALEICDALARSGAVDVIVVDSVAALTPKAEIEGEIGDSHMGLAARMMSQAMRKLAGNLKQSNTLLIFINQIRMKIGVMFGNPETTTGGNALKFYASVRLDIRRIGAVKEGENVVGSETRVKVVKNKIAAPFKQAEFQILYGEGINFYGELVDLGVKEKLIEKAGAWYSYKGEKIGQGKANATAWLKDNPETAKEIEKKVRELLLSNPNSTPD

B1: Wild-type RecA (RecA-wt) (natural protein, E. coli, UniProt P0A7G6 1-353, looked up)
chain: MAIDENKQKALAAALGQIEKQFGKGSIMRLGEDRSMDVETISTGSLSLDIALGAGGLPMGRIVEIYGPESSGKTTLTLQVIAAAQREGKTCAFIDAEHALDPIYARKLGVDIDNLLCSQPDTGEQALEICDALARSGAVDVIVVDSVAALTPKAEIEGEIGDSHMGLAARMMSQAMRKLAGNLKQSNTLLIFINQIRMKIGVMFGNPETTTGGNALKFYASVRLDIRRIGAVKEGENVVGSETRVKVVKNKIAAPFKQAEFQILYGEGINFYGELVDLGVKEKLIEKAGAWYSYKGEKIGQGKANATAWLKDNPETAKEIEKKVRELLLSNPNSTPDFSVDDSEGVAETNEDF
notes: wild-type RecA, Escherichia coli; source: purified as previously described (21,33)
Take B1: the binding result in data set [1] is recorded as “binds”.

B2: OL2 90-mer ssDNA (ssDNA)
DNA: AAATCAATCTAAAGTATATATGAGTAAACTTGGTCTGACAGTTACCAATGCTTAATCAGTGAGGCACCTATCTCAGCGATCTGTCTATTT
Consider B2, for which the binding result in data set [2] and in data set [3] was “no binding” throughout.

The values above are taken from article PMC6237804, “Nonfilament-forming RecA dimer catalyzes homologous joint formation” (Nucleic Acids Research, 2018).
